Residue numbers refer to the chain shown, from its start. Blank lines part the entries; values can stand above or below the binder they belong to.
Target: T1, ヒトCD40 (human CD40 expressed on cells) (human, UniProt P25942 21-277)
T1 construct: whole, on cells; also called Ramos細胞上のCD40; DC上のCD40
Assay: screening by ELISA (human CD40 mouse FC) and FACS (Ramos cells)

T1 sequence (P25942 21-277): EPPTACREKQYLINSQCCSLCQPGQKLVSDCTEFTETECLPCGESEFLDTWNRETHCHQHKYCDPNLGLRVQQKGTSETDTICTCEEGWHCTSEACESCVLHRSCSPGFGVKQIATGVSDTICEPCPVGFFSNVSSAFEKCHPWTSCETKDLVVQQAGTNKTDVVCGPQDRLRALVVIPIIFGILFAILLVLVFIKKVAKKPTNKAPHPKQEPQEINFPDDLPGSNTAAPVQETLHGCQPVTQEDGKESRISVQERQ

binding result: binds
B4: KM281-1-10抗体 (antibody, V domains shown)
VH: QVQLQESGPGLVKPSETLSLTCTVSGGSISGYYWSWIRQPPGKGLEWIGYIYYSGSTNYNPSLKSRVTISVDTSKNQFSLKLNSVTAADTAVYYCARAPLHGDYKWFHPWGQGTLVTVSS
VL: not shown
notes: Human antagonistic anti-CD40 antibody, FERM BP-7579; Signal peptides predicted by Signal P

binding result: binds
B5: F5-77抗体 (antibody, V domains shown)
VH: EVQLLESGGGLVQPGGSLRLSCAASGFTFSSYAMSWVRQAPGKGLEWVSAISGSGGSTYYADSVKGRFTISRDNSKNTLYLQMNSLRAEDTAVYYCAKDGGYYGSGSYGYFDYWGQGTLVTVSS
VL: DIQMTQSPSSVSGSVGDRVTITCRASQGISSWLAWYQQKPGKAPKLLIYAGSSLQSGVPSRFSGSGFGTDFTLTISSLQPEDFATYYCQQASSFPRTFGQGTKVEIK
notes: Human agonistic anti-CD40 antibody from hybridoma; plasmids ATCC PTA-3304 and PTA-3305; Signal peptides predicted by Signal P

binding result: binds
B7: 115抗体 (antibody, V domains shown)
VH: QVQLVESGGGVVQPGRSLRLSCAASGFTFSSYGMHWVRQAPGKGLEWVAVIWNDGSIKYYADSVKGRFTISRDNSKNTLYLQMNSLRAEDTAVYYCAREGYNILTGYFGYWGQGTLVTVSS
VL: VIWMTQSPSLLSASTGDRVTISCRMSQGISSDLAWYQQKPGKAPELLISAASTLQSGVPSRFSGSGSGTDFTLTISCLQSEDFATYYCQQYYSFPWTFGQGTKVEIK
notes: Human agonistic anti-CD40 antibody from hybridoma; Signal peptides predicted by Signal P

binding result: binds
B8: KM643-4-11抗体 (antibody, V domains shown)
VH: QVQLQQSGPGLVKPSQTLSFTCAISGDSVSSNSAAWNWIRQSPSRGLEWLGRTYYRSKWYKDYAVSVKSRITINPDTSKNQFSLQLNSVTPEDTAVYYCARGYYYGSGSYPYYYQMDVWGQGTTVTVSS
VL: EIVLTQSPATLSLSPGESATLSCRASQSVSSYLAWYQQKPGQAPRLLIYDASNRATGIPARFSGSGSGTDFTLTISSLEPEDFAVYYCQQRSNTFGGGTKVEIK
notes: as for B7

Continued, binder first:

B1: 2105抗体 (antibody, V domains shown)
VH: EVQLVESGGGLVQPGRSLRLSCAASGFTFDDYAMHWVRQAPGKGLEWVSGISWNSGSLVHADSVKGRFTISRDNAKNSLYLQMNSLRAEDTALYYCARDRLFRGVRYYGMDVWGQGTTVTVSS
VL: EIVLTQSPATLSLSPGERATLSCRASQSVSSYLAWYQQKPGQAPRLLIYDASNRATGIPARFSGSGSGTDFTLTISSLEPEDFAVYYCQQRSHWLTFGGGTKVEIK
notes: Human agonistic anti-CD40 antibody, FERM BP-8024
binding result: binds

B2: F2-103抗体 (antibody, V domains shown)
VH: EVQLVESGGGLVQPGGSLRLSCAVSGFTFSTYWMHWVRQAPGKGLVWVSRINSDGSSTTYADSVKGRFTISRDNAKNTLYLQMNSLRAEDTAVYYCARDRVLWIGELSYYGMDVWGQGTTVTVSS
VL: DIQMTQSPSTLSASVGDRVTITCRASQSISNWLAWYQQKPGKAPKLLLYKASGLESGVPSRFSGSGSGTEFTLTINSLQPDDFATYYCQQSNSYSWTFGHGTKVEIK
notes: Human agonistic anti-CD40 antibody from hybridoma; plasmids ATCC PTA-3302 and PTA-3303; Signal peptides predicted by Signal P
binding result: binds

B3: 4D11抗体 (antibody, V domains shown)
VH: QLQLQESGPGLLKPSETLSLTCTVSGGSISSPGYYGGWIRQPPGKGLEWIGSIYKSGSTYHNPSLKSRVTISVDTSKNQFSLKLSSVTAADTAVYYCTRPVVRYFGWFDPWGQGTLVTVSS
VL: AIQLTQSPSSLSASVGDRVTITCRASQGISSALAWYQQKPGKAPKLLIYDASNLESGVPSRFSGSGSGTDFTLTISSLQPEDFATYYCQQFNSYPTFGQGTKVEIK
notes: Human antagonistic anti-CD40 antibody, FERM BP-7758; Signal peptides predicted by Signal P
binding result: binds

B6: 110抗体 (antibody, V domains shown)
VH: B7 VH with N53Y
VL: B7 VL
notes: as for B7
binding result: binds

Reference: patent JP2006342173A (dated 2006)
